Tested on: pCGS206 (luciferase reporter with response elements for the GAL4 DNA binding domain)
Assay: Maize BMS cells bombarded with GAL4 luciferase reporter and receptor vector, GUS-normalized luciferase
Type: cell-based
Settings: for Normalized Average (EtOH): unliganded background
Experimental: (§1) Maize BMS (Black Mexican Sweet) cultured cells are transfected with pCGS206 and pCGS208 by high velocity microprojectile bombardment. In addition, an expression plasmid containing the maize ubiquitin promoter driving the expression of β-glucuronidase (GUS) is added to the transfection to serve as an internal control to normalize against variations among the samples.
(§2) Transfections are treated and cell lysates are made essentially as described in U.S. Pat. No. 5,880,333. […] Both luciferase and GUS assays are performed with 20 μl of cell lysate for each assay using the Promega Luciferase Kit (Promega cat #E1500) and GUS-Light Kit (Tropix) respectively. Relative light units are determined using a Turner Designs TD 20/20 luminometer.
In addition to tebufenozide, methoxytebufenozide (“MethoxyTeb”) is also capable of inducing gene expression in maize BMS cells. Both pCGS206 and pCGS208 are transfected as described above and methoxytebufenozide is added in place of tebufenozide at 25 μM and 10 μM.
Maize BMS cells are transfected and assayed as in Example 12.
as §1, with “Transformation of maize suspension cells, chemical treatment, and reporter activity assays are performed as described in Example 12. Maize” for “Maize”, “pCGS206 (pBS-bz1TATA/intronLUC), pCGS203 (G(M)MV), pCGS672 (G(M)MC),” for “pCGS206”, “pCGS678 (G(M)MD)” for “pCGS208”
as §2, with “Maize BMS cells are bombarded with reporter vector pCGS206 and chimeric receptors and treated with tebufenozide essentially as described in Example 12. Transfections” for “Transfections”, “units (RLU)” for “units”

[1] = Example 24, Experiment 1, 20 μM Teb
[2] = Example 24, Experiment 1, BMS cells
[3] = Example 24, Experiment 2, 20 μM Teb
[4] = Example 24, Experiment 2, BMS cells
[5] = Example 26, + 10 μM Teb vs without
[6] = Example 26, BMS cells, reporter pCGS206, no ligand
[7] = Example 28, BMS cells, reporter pCGS206, no ligand, GUS-normalized

## COc1cccc(C(=O)NN(C(=O)c2cc(C)cc(C)c2)C(C)(C)C)c1C [methoxytebufenozide, reference compound]
Maize BMS cells, methoxytebufenozide 25 μM and 10 μM
  average fold activation of the Manduca G(M)MV EcR (ubi/GAL4-MV): 25 fold

B1: G(M)BV: EcR chimera: GAL4 DBD, Manduca sexta D domain, black cutworm E domain, VP16; SEQ ID NO:118-119 (protein)
chain: MQQLYVDFFSPAFIRYLFAWYCFFCRCSPCCLVLLLQGSATMKLLSSIEQACDICRLKKLKCSKEKPKCAKCLKNNWECRYSPKTKRSPLTRAHLTEVESRLERLEQLFLLIFPREDLDMILKMDSLQDIKALLTGLFVQDNVNKDAVTDRLASVETDMPLTLRQHRISATSSSEESSNKGQRQLTVSTRMRPECVVPESTCKNKRREKEAQREKDKLPVSTTTVDDHMPAIMQCDPPPPEAARIHEVVPRFLTEKLMEQNRLKNVTPLSANQKSLIARLVWYQEGYEQPSEEDLKRVTQTWQSDEDEEESDMPFRQITEMTILTVQLIVEFAKGLPGFAKISQSDQITLLKACSSEVMMLRVARRYDAATDSVLFANNQAYSRDNYRKAGMSYVIEDLLHFCRCMYSMMMDNVHYALLTAIVIFSDRPGLEQPLLVEEIQRYYLNTLRVYILNQNSASPRCPVVFAKILGILTELRTLGMQNSNMCISLKLKNRKLPPFLEEIWDVESRGKLAPPTDVSLGDELHLDGEDVAMAHADALDDFDLDMLGDGDSPGPGFTPHDSAPYGALDMADFEFEQMFTDALGIDEYGG
[1]
  Fold Induction with Teb Relative to Receptor with EtOH: 34 fold
  Fold Induction with Teb Relative to Reporter with EtOH: 81 fold
[2]
  Normalized Average (EtOH): 8.701
[3]
  Fold Induction with Teb Relative to Receptor with EtOH: 26 fold
  Fold Induction with Teb Relative to Reporter with EtOH: 95 fold
[4]
  Normalized Average (EtOH): 1.539

B2: G(M)MV: EcR chimera: GAL4 DNA binding domain, Manduca sexta D and E domains, VP16; SEQ ID NO:104-105 (protein)
chain: MKLLSSIEQACDICRLKKLKCSKEKPKCAKCLKNNWECRYSPKTKRSPLTRAHLTEVESRLERLEQLFLLIFPREDLDMILKMDSLQDIKALLTGLFVQDNVNKDAVTDRLASVETDMPLTLRQHRISATSSSEESSNKGQRQLTVSTRMRPECVVPESTCKNKRREKEAQREKDKLPVSTTTVDDHMPAIMQCDPPPPEAARIHEVVPRFLTEKLMEQNRLKNVTPLSANQKSLIARLVWYQEGYEQPSEEDLKRVTQTWQLEEEEEEETDMPFRQITEMTILTVQLIVEFAKGLPGFSKISQSDQITLLKASSSEVMMLRVARRYDAATDSVLFANNQAYTRDNYRKAGMSYVIEDLLHFCRCMYSMSMDNVHYALLTAIVIFSDRPGLEQPLLVEEIQRYYLKTLRVYILNQHSASPRCAVLFGKILGVLTELRTLGTQNSNMCISLKLKNRKLPPFLEEIWDVAEVSTTKLAPPTDVSLGDELHLDGEDVAMAHADALDDFDLDMLGDGDSPGPGFTPHDSAPYGALDMADFEFEQMFTDALGIDEYGG
modifications: (1)..(3972) GAL4-Manduca EcR-VP16 fragment in pCGS202
[1]
  Fold Induction with Teb Relative to Receptor with EtOH: 44 fold
  Fold Induction with Teb Relative to Reporter with EtOH: 83 fold
[2]
  Normalized Average (EtOH): 6.889
[3]
  Fold Induction with Teb Relative to Receptor with EtOH: 15 fold
  Fold Induction with Teb Relative to Reporter with EtOH: 61 fold
[4]
  Normalized Average (EtOH): 1.721
Example 26, + 10 μM Teb
  Experiment #1 Luciferase: 99.49
  Experiment #2 Luciferase: 136.41
[5]
  Experiment #1 Fold Induction: 16.7 fold
  Experiment #2 Fold Induction: 35.1 fold
[6]
  Experiment #1 Luciferase: 5.97
  Experiment #2 Luciferase: 3.89
[7]
  Experiment #1 RLU: 3.73 RLU
  Experiment #2 RLU: 3.17 RLU
Maize BMS cells, 10 μM tebufenozide, average of assays
  average fold induction with tebufenozide: 36 fold

B3: G(E)EV: EcR chimera: GAL4 DBD, European corn borer D and E domains, VP16; SEQ ID NO:124-125 (protein)
chain: MQQLYVDFFSPAFIRYLFAWYCFFCRCSPCCLVLLLQGSATMKLLSSIEQACDICRLKKLKCSKEKPKCAKCLKNNWECRYSPKTKRSPLTRAHLTEVESRLERLEQLFLLIFPREDLDMILKMDSLQDIKALLTGLFVQDNVNKDAVTDRLASVETDMPLTLRQHRISATSSSEESSNKGQRQLTVSTRMRPECVVPETQCAQKRKEKKAQREKDKLPVSTTTVDDHMPPIMQCDPPPPEAARILECLQHEVVPRFLSEKLMEQNRLKNIPPLTANQQFLIARLVWYQDGYEQPSEEDLKRVTQTWQSADEEDEDSDMPFRQITEMTILTVQLIVEFAKGLPGFSKISQPDQITLLKACSSEVMMLRVARRYDAVSDSVLFANNQAYTRDNYRKAGMAYVIEDLLHFCRCMYSMSMDNVHYALLTAIVIFSDRPGLEQPQLVEEIQRYYLNTLRVYIMNQHSASPRCAVIYAKILSVLTELRTLGMQNSNMCISLKLKNRKLPPFLEEIWDVKLAPPTDVSLGDELHLDGEDVAMAHADALDDFDLDMLGDGDSPGPGFTPHDSAPYGALDMADFEFEQMFTDALGIDEYGG
[1]
  Fold Induction with Teb Relative to Receptor with EtOH: 57 fold
  Fold Induction with Teb Relative to Reporter with EtOH: 119 fold
[2]
  Normalized Average (EtOH): 7.601
[3]
  Fold Induction with Teb Relative to Receptor with EtOH: 17 fold
  Fold Induction with Teb Relative to Reporter with EtOH: 99 fold
[4]
  Normalized Average (EtOH): 2.394

B4: G(M)EV: EcR chimera: GAL4 DBD, Manduca sexta D domain, European corn borer E domain, VP16; SEQ ID NO:120-121 (protein)
chain: MQQLYVDFFSPAFIRYLFAWYCFFCRCSPCCLVLLLQGSATMKLLSSIEQACDICRLKKLKCSKEKPKCAKCLKNNWECRYSPKTKRSPLTRAHLTEVESRLERLEQLFLLIFPREDLDMILKMDSLQDIKALLTGLFVQDNVNKDAVTDRLASVETDMPLTLRQHRISATSSSEESSNKGQRQLTVSTRMRPECVVPESTCKNKRREKEAQREKDKLPVSTTTVDDHMPAIMQCDPPPPEAARIHEVVPRFLTEKLMEQNRLKNVTPLSANQKSLIARLVWYQDGYEQPSEEDLKRVTQTWQSADEEDEDSDMPFRQITEMTILTVQLIVEFAKGLPGFSKISQPDQITLLKACSSEVMMLRVARRYDAVSDSVLFANNQAYTRDNYRKAGMAYVIEDLLHFCRCMYSMSMDNVHYALLTAIVIFSDRPGLEQPQLVEEIQRYYLNTLRVYIMNQHSASPRCAVIYAKILSVLTELRTLGMQNSNMCISLKLKNRKLPPFLEEIWDVKLAPPTDVSLGDELHLDGEDVAMAHADALDDFDLDMLGDGDSPGPGFTPHDSAPYGALDMADFEFEQMFTDALGIDEYGG
[1]
  Fold Induction with Teb Relative to Receptor with EtOH: 63 fold
  Fold Induction with Teb Relative to Reporter with EtOH: 119 fold
[2]
  Normalized Average (EtOH): 6.965
[3]
  Fold Induction with Teb Relative to Receptor with EtOH: 58 fold
  Fold Induction with Teb Relative to Reporter with EtOH: 139 fold
[4]
  Normalized Average (EtOH): 0.028
Example 24, BMS cells, 20 μM Teb
  rank of fold induction among D+E domain combinations: highest fold induction

B5: G(M)FV: EcR chimera: GAL4 DBD, Manduca sexta D domain, fall armyworm E domain, VP16; SEQ ID NO:122-123 (protein)
chain: MQQLYVDFFSPAFIRYLFAWYCFFCRCSPCCLVLLLQGSATMKLLSSIEQACDICRLKKLKCSKEKPKCAKCLKNNWECRYSPKTKRSPLTRAHLTEVESRLERLEQLFLLIFPREDLDMILKMDSLQDIKALLTGLFVQDNVNKDAVTDRLASVETDMPLTLRQHRISATSSSEESSNKGQRQLTVSTRMRPECVVPESTCKNKRREKEAQREKDKLPVSTTTVDDHMPAIMQCDPPPPEAARIHEVVPRFLTEKLMEQNRLKNVTPLSANQKSLIARLVWYQEGYEQPSEEDLKRVTQTWQLEEEEEEETDMPFRQITEMTILTVQLIVEFAKGLPGFSKISQSDQITLLKASSSEVMMLRVARRYDAATDSVLFANNQAYTRDNYRKAGMSYVIGDLLHFCRCMYSMSMDNVHYALLTAIVIFSDRPGLEQPLLVEEIQRYYLKTLRVYILNQYSASPRCAVLFGKILGVLTELRTLGTQNSNMCISLKLKNRKLPPFLEEIWDVKLAPPTDVSLGDELHLDGEDVAMAHADALDDFDLDMLGDGDSPGPGFTPHDSAPYGALDMADFEFEQMFTDALGIDEYGG
[1]
  Fold Induction with Teb Relative to Receptor with EtOH: 51 fold
  Fold Induction with Teb Relative to Reporter with EtOH: 52 fold
[2]
  Normalized Average (EtOH): 3.766
[3]
  Fold Induction with Teb Relative to Receptor with EtOH: 24 fold
  Fold Induction with Teb Relative to Reporter with EtOH: 57 fold
[4]
  Normalized Average (EtOH): 0.484

— patent US6958236B2, “Control of gene expression in plants” (priority 2000, dated 2005)
